Measured values reported in PMC11630639, “Real-time single-molecule imaging of CaMKII-calmodulin interactions” (Biophysical Journal, 2024).

Assays:
[1] = target: wheat germ rhodamine-calmodulin (r-CAM) (UniProt P04464); assay: single-molecule two-colour TIRFM, immobilised holoenzyme; settings: reference: T287A holoenzyme (T306, T307 intact); sites T306,T307
[2] = target: the molecule itself; assay: single-molecule stepwise photobleaching of Venus (TIRF microscopy); V-CaMKII held on a coverslip by GFP antibody; photobleaching steps in the Venus channel counted with a step-finder algorithm to give subunit stoichiometry (S_CaMKII)

other: τ+/τ− ratio [1] | Molecule | binding result [2]
stronger; reference 1.76 | CaMKIIβ (Venus-CaMKIIβ) (from UniProt P28652) T287A/T306A/T307A holoenzyme | 
 | Venus-CaMKIIβ T287.306-307A holoenzyme (enzyme, mouse, UniProt P28652 1-542, looked up, CaMKII β isoform with T to A substitutions at T287, T306 and T307; also called T287.T306.307A; phosphorylation-defective holoenzyme; source: E. coli BL21/Rosetta or BL21/C41, cotransformed with a protein phosphatase plasmid; copies: 14) MATTVTCTRFTDEYQLYEDIGKGAFSVVRRCVKLCTGHEYAAKIINTKKLSARDHQKLEREARICRLLKHSNIVRLHDSISEEGFHYLVFDLVTGGELFEDIVAREYYSEADASHCIQQILEAVLHCHQMGVVHRDLKPENLLLASKCKGAAVKLADFGLAIEVQGDQQAWFGFAGTPGYLSPEVLRKEAYGKPVDIWACGVILYILLVGYPPFWDEDQHKLYQQIKAGAYDFPSPEWDTVTPEAKNLINQMLTINPAKRITAHEALKHPWVCQRSTVASMMHRQEAVECLKKFNARRKLKGAILAAMLATRNFSVGRQTTAPATMSTAASGTTMGLVEQAKSLLNKKADGVKPQTNSTKNSSAITSPKGSLPPAALEPQTTVIHNPVDGIKESSDSTNTTIEDEDAKARKQEIIKTTEQLIEAVNNGDFEAYAKICDPGLTSFEPEALGNLVEGMDFHRFYFENLLAKNSKPIHTTILNPHVHVIGEDAACIAYIRLTQYIDGQGRPRTSQSEETRVWHRRDGKWQNVHFHCSGAPVAPLQ | binds
